Experimental data published in patent US20150361150A1.

Biological target: tyrosine-protein kinase KIT on the surface of human KIT+ GIST cell lines (GIST 882, GIST 48) (human) (UniProt P10721)
Test: cell-based or functional assay

Chain of UniProt P10721 (P10721 26-976): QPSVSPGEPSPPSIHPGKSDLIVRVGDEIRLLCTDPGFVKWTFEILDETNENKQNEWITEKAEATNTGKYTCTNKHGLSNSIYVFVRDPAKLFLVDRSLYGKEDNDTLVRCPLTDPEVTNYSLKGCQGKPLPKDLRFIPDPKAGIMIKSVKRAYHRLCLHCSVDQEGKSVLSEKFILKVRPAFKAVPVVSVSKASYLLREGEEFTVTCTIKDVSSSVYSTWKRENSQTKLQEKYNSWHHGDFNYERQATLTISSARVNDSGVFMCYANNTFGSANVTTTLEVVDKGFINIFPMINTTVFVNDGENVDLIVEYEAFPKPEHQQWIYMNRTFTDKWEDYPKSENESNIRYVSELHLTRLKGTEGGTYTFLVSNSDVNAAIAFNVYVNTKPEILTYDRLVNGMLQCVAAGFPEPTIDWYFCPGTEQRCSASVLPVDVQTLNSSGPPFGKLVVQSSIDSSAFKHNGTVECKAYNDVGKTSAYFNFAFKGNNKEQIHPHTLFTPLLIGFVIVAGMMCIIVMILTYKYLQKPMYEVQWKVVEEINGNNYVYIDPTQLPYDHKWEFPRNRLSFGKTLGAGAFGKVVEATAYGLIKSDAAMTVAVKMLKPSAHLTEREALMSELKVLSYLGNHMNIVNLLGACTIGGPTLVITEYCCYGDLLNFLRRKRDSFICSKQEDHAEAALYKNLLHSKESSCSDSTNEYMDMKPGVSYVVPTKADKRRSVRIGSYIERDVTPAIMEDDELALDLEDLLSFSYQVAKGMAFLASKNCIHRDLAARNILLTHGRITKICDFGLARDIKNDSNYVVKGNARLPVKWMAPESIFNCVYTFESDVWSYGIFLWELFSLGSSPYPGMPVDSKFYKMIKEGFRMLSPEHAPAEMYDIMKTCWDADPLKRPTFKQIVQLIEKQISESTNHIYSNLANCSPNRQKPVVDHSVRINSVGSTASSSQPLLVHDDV

| Substance | percent of designer T cells divided (CFSE dilution) in co-culture with KIT+ GIST882 cells [%] |
| --- | --- |
| 2^nd generation anti-KIT chimeric immune receptor (extracellular domain of KIT ligand fused to CD28 and CD3 zeta), expressed on human designer T cells | 47 |
| 1^st generation anti-KIT chimeric immune receptor (extracellular domain of KIT ligand fused to the CD3 zeta chain), expressed on human designer T cells | 39 |
